# Experimental data: publication PMC4569848 (Nature Communications, 2015)
# T1: GST-clathrin 1–494 (human, UniProt Q00610 1-494)
# T1 construct: clathrin, human, residues 1-494, in pGEX-6P1; source: E. coli BL21, purified (glutathione-Sepharose 4B, eluted with GSH); not shown: GST, N-terminal, kept
# T1 sequence (looked up): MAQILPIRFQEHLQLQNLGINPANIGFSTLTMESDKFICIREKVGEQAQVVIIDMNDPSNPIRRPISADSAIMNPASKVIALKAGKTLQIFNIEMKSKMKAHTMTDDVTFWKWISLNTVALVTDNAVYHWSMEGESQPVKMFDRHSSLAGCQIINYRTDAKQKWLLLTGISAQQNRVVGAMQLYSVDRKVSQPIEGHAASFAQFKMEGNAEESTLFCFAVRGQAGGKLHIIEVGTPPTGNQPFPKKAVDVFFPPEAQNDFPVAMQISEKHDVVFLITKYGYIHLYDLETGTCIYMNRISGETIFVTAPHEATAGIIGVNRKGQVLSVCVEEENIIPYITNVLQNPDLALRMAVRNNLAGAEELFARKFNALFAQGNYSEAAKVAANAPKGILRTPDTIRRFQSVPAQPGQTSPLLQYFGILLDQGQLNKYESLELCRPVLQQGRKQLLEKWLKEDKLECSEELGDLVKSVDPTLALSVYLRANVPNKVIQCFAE
# Target: T1, GST-clathrin 1–494
# Test: pull-down; β-arrestin-1-F2Y mutants (300 nM) incubated with equal concentrations of GST-clathrin and V2R-phospho-peptide (V2Rpp), or without peptide; pulled down with GST beads; bound β-arrestin-1 detected by western blot with a β-arrestin-1 antibody
# Details: both partners purified
row,binding result,Binder
1,binds,"β-arrestin-1-K11-F2Y (natural protein, bovine, UniProt P17870 1-418, looked up, 3,5-difluorotyrosine (F2Y) at 11, β-arrestin-1, bovine, full-length cDNA in pET22b, amber codon at K11 read as F2Y; source: E. coli BL21 (DE3) with pEVOL-F2YRS and F2Y in the medium, purified (Ni-NTA, gel filtration)) MGDKGTRVFKYASPNGKLTVYLGKRDFVDHIDLVEPVDGVVLVDPEYLKERRVYVTLTCAFRYGREDLDVLGLTFRKDLFVANVQSFPPAPEDKKPLTRLQERLIKKLGEHAYPFTFEIPPNLPCSVTLQPGPEDTGKACGVDYEVKAFCAENLEEKIHKRNSVRLVIRKVQYAPERPGPQPTAETTRQFLMSDKPLHLEASLDKEIYYHGEPISVNVHVTNNTNKTVKKIKISVRQYADICLFNTAQYKCPVAMEEADDTVAPSSTFCKVYTLTPFLANNREKRGLALDGKLKHEDTNLASSTLLREGANREILGIIVSYKVKVKLVVSRGGLLGDLASSDVAVELPFTLMHPKPKEEPPHREVPEHETPVDTNLIELDTNDDDIVFEDFARQRLKGMKDDKEEEEDGTGSPRLNDR"
2,binds,"β-arrestin-1-N375-F2Y (natural protein, bovine, UniProt P17870 1-418, looked up, 3,5-difluorotyrosine (F2Y) at 375, β-arrestin-1, bovine, full-length cDNA in pET22b, amber codon at N375 read as F2Y; also called F2Y-N375; source: E. coli BL21 (DE3) with pEVOL-F2YRS and F2Y in the medium, purified (Ni-NTA, gel filtration)) MGDKGTRVFKKASPNGKLTVYLGKRDFVDHIDLVEPVDGVVLVDPEYLKERRVYVTLTCAFRYGREDLDVLGLTFRKDLFVANVQSFPPAPEDKKPLTRLQERLIKKLGEHAYPFTFEIPPNLPCSVTLQPGPEDTGKACGVDYEVKAFCAENLEEKIHKRNSVRLVIRKVQYAPERPGPQPTAETTRQFLMSDKPLHLEASLDKEIYYHGEPISVNVHVTNNTNKTVKKIKISVRQYADICLFNTAQYKCPVAMEEADDTVAPSSTFCKVYTLTPFLANNREKRGLALDGKLKHEDTNLASSTLLREGANREILGIIVSYKVKVKLVVSRGGLLGDLASSDVAVELPFTLMHPKPKEEPPHREVPEHETPVDTYLIELDTNDDDIVFEDFARQRLKGMKDDKEEEEDGTGSPRLNDR"
3,binds,"β-arrestin-1-K138-F2Y (natural protein, bovine, UniProt P17870 1-418, looked up, 3,5-difluorotyrosine (F2Y) at 138, β-arrestin-1, bovine, full-length cDNA in pET22b, amber codon at K138 read as F2Y; source: E. coli BL21 (DE3) with pEVOL-F2YRS and F2Y in the medium, purified (Ni-NTA, gel filtration)) MGDKGTRVFKKASPNGKLTVYLGKRDFVDHIDLVEPVDGVVLVDPEYLKERRVYVTLTCAFRYGREDLDVLGLTFRKDLFVANVQSFPPAPEDKKPLTRLQERLIKKLGEHAYPFTFEIPPNLPCSVTLQPGPEDTGYACGVDYEVKAFCAENLEEKIHKRNSVRLVIRKVQYAPERPGPQPTAETTRQFLMSDKPLHLEASLDKEIYYHGEPISVNVHVTNNTNKTVKKIKISVRQYADICLFNTAQYKCPVAMEEADDTVAPSSTFCKVYTLTPFLANNREKRGLALDGKLKHEDTNLASSTLLREGANREILGIIVSYKVKVKLVVSRGGLLGDLASSDVAVELPFTLMHPKPKEEPPHREVPEHETPVDTNLIELDTNDDDIVFEDFARQRLKGMKDDKEEEEDGTGSPRLNDR"
4,binds,"β-arrestin-1-T136-F2Y (natural protein, bovine, UniProt P17870 1-418, looked up, 3,5-difluorotyrosine (F2Y) at 136, β-arrestin-1, bovine, full-length cDNA in pET22b, amber codon at T136 read as F2Y; also called F2Y-T136; source: E. coli BL21 (DE3) with pEVOL-F2YRS and F2Y in the medium, purified (Ni-NTA, gel filtration)) MGDKGTRVFKKASPNGKLTVYLGKRDFVDHIDLVEPVDGVVLVDPEYLKERRVYVTLTCAFRYGREDLDVLGLTFRKDLFVANVQSFPPAPEDKKPLTRLQERLIKKLGEHAYPFTFEIPPNLPCSVTLQPGPEDYGKACGVDYEVKAFCAENLEEKIHKRNSVRLVIRKVQYAPERPGPQPTAETTRQFLMSDKPLHLEASLDKEIYYHGEPISVNVHVTNNTNKTVKKIKISVRQYADICLFNTAQYKCPVAMEEADDTVAPSSTFCKVYTLTPFLANNREKRGLALDGKLKHEDTNLASSTLLREGANREILGIIVSYKVKVKLVVSRGGLLGDLASSDVAVELPFTLMHPKPKEEPPHREVPEHETPVDTNLIELDTNDDDIVFEDFARQRLKGMKDDKEEEEDGTGSPRLNDR"
5,binds,"β-arrestin-1-R7-F2Y (natural protein, bovine, UniProt P17870 1-418, looked up, 3,5-difluorotyrosine (F2Y) at 7, β-arrestin-1, bovine, full-length cDNA in pET22b, amber codon at R7 read as F2Y; source: E. coli BL21 (DE3) with pEVOL-F2YRS and F2Y in the medium, purified (Ni-NTA, gel filtration)) MGDKGTYVFKKASPNGKLTVYLGKRDFVDHIDLVEPVDGVVLVDPEYLKERRVYVTLTCAFRYGREDLDVLGLTFRKDLFVANVQSFPPAPEDKKPLTRLQERLIKKLGEHAYPFTFEIPPNLPCSVTLQPGPEDTGKACGVDYEVKAFCAENLEEKIHKRNSVRLVIRKVQYAPERPGPQPTAETTRQFLMSDKPLHLEASLDKEIYYHGEPISVNVHVTNNTNKTVKKIKISVRQYADICLFNTAQYKCPVAMEEADDTVAPSSTFCKVYTLTPFLANNREKRGLALDGKLKHEDTNLASSTLLREGANREILGIIVSYKVKVKLVVSRGGLLGDLASSDVAVELPFTLMHPKPKEEPPHREVPEHETPVDTNLIELDTNDDDIVFEDFARQRLKGMKDDKEEEEDGTGSPRLNDR"
6,binds,"β-arrestin-1-K294-F2Y (natural protein, bovine, UniProt P17870 1-418, looked up, 3,5-difluorotyrosine (F2Y) at 294, β-arrestin-1, bovine, full-length cDNA in pET22b, amber codon at K294 read as F2Y; source: E. coli BL21 (DE3) with pEVOL-F2YRS and F2Y in the medium, purified (Ni-NTA, gel filtration)) MGDKGTRVFKKASPNGKLTVYLGKRDFVDHIDLVEPVDGVVLVDPEYLKERRVYVTLTCAFRYGREDLDVLGLTFRKDLFVANVQSFPPAPEDKKPLTRLQERLIKKLGEHAYPFTFEIPPNLPCSVTLQPGPEDTGKACGVDYEVKAFCAENLEEKIHKRNSVRLVIRKVQYAPERPGPQPTAETTRQFLMSDKPLHLEASLDKEIYYHGEPISVNVHVTNNTNKTVKKIKISVRQYADICLFNTAQYKCPVAMEEADDTVAPSSTFCKVYTLTPFLANNREKRGLALDGKLYHEDTNLASSTLLREGANREILGIIVSYKVKVKLVVSRGGLLGDLASSDVAVELPFTLMHPKPKEEPPHREVPEHETPVDTNLIELDTNDDDIVFEDFARQRLKGMKDDKEEEEDGTGSPRLNDR"
